This note sets out measurements from the DeepSol protein solubility set.

This series in a line: soluble on expression in E. coli; label from the status in PepcDB or PDB records.
In the case of “MAHHHHHHMWKAIFGKKVDSIKAIDSIYHLSDNDFRWLQGFPQLKGSDRVQTLASSEGEGSKDDYMEEPVGPVSHRDVLLYTVGIIKGATHPLLRESSLAVTGTHTKEGETFFTLDFR”, the “soluble on expression in E. coli” value is on record as “not soluble”.
“ATKEFIYLVRGMTPEQGQAALDLKVPGVYGIEEFRRFYPAGDVTAHMVGFTDLDDHGREGVELAYDDWLAGVPGKRQVIKDRRGRLIKDVQVTKNAKAGKTLALSID”: the “soluble on expression in E. coli” value was “not soluble”.
Regarding “MGSDKIHHHHHHMSTVHDEMGVMNTTVKFLHSSDLQIGMTRWFLSDEAQARFDDDRIRAIEKMGKIARKNQCEFIVLAGDVFEHNSLEQRTTGRALEALRSLKLPVYLLPGNHDPLTADSLFYRAKDIDGVTILSDTTVHGVAPGVEIIGAPLLHKMATSDLVAEALKDLEPTSNVRIAVGHGQAEARTTDHRADLIDLNTVEAKLADGTIDYLALGDTHSAQPVGTSGKVWFSGAPETTDFHDLDPDRVGGEVNSGKVLIVSASKGDVSVEEVEVGKWTFHALSKEITSGTDVEDFLDTLQAYPDKSRTVIKYGLRGTITLEQNRRLEEGIAGLEDVFASLKPRERTTDLVLEPGEEELANLDATGYAAEVLRELADSVVNGAAPEEDRDALNLLFRLSREV”, the “soluble on expression in E. coli” value is recorded as “not soluble”.
As to “MAEQLSPGKAVDQVCTFLFKKPGRKGAAGRRKRPACDPEPGESGSSSDEGCTVVRPEKKRVTHNPMIQKTRDSGKQKAAYGDLSSEEEEENEPESLGVVYKSTRSAKPVGPEDMGATAVYELDTEKERDAQAIFERSQKIQEELRGKEDDKIYRGINNYQKYMKPKDTSMGNASSGMVRKGPIRAPEHLRATVRWDYQPDICKDYKETGFCGFGDSCKFLHDRSDYKHGWQIERELDEGRYGVYEDENYEVGSDDEEIPFKCFICRQSFQNPVVTKCRHYFCESCALQHFRTTPRCYVCDQQTNGVFNPAKELIAKLEKHRATGEGGASDLPEDPDEDAIPIT”, the “soluble on expression in E. coli” value was “soluble”.
With “MNWEQKSSMLKKKIERIKEIETTLWGNLEKCELCPRKCGVDRYRTTGICGLPARAKISNAVLHFGEEPPISGKTGAGTVFFSGCNMKCVYCQNMGFSQKGIGTEVEVEDLAEIFLILQKHGAKTLNLVTPTPHLPFIISALRIAIENGLNLPIVYNTSGYEDPEILRLLEGVVDIYLSDVRYSDNEASKKYSKTPDYWTVVQKAIVEMFRQVGIFDEEKMKGLIVRILVLPGNVVDYSEIFSFLSSLSTRIPLSIMNQYIPHFDAQKFPEISRKLNQNEYEKILELAERYGFTEGWYQSEEKERVTTRGLKEISEKLQFLRLKTHNSY” the entry was “not soluble”.
With “MKVLKPGLLTTVQDIGRTGYQKYGVLASGAMDTVSLRIANLLIGNGENEAGLEITMMGPGPSFHFSKQTLIAVTGADFTLRINDEEAPLWKPVLIKENSTVSFGPCKLGSRAYLAAAGGIEVPAVMESKSTYVRGSIGGLHGRALQKEDELNIGEMSALSQTILSRLSSQLAHTVIGSTDVVSQPWEISVIEDESRHSSAGGISICLLHSRIKNAFSEEAFRVTPQSDRMGYRLKGEPLDLTAPLEMVSAAVSFGAAQMPPAGKPYYPCLQDRQDDWPAIRGIAHIISADLPIVSQIMPGEHVQFEPVSLQEAEALAVEREQHIKELKTRMKMEWLT” the entry was “not soluble”; with “MISVCIATYNGEKYLAEQLDSILLQVSEEDELIISDDGSTDHTLEILRTYAANYPQIQLLQGPGQGVIANFAFALTHTKGEVIFLADQDDVWLPNKVTTVTEYFETHPDIQVVISDLKIVDADLQVTNPSYFKFRKVKPGFWRNAIKSGYIGAGMAFRQEMKNVILPIPPEVPMHDMWIGLLAARKKQTGLIKEPLVLYRRHGANVSPIITKTSFQQKLNWRVNLLKALHQRLKEQRLEHHHHHH”, “soluble”.
“MGSDKIHHHHHHMKYALGNILYYWPKEDVEAFYQAAVNSSADIVYLGETVCSKRRLMKVADWFNVAREVANSGKQVVISTLALLQAPSELTELRRYVENGEFLLEANDLGAVNIAAERNLPFVAGHALNCYNAYTLRVLHKQGMVRWCMPVELSRDWLQNLLNQCEELGFRHQFEVEVLSYGHLPLAYSARCFTARSEDRPKDECETCCLSYPQGRKMLSQENQQVFVLNGIQTQSGYCYNLGNELTSMRDLVDIVRLSPNDITTPAMLDTFRANEQGNMPLTLQNQADCNGYWRRVAGLELVQ”: the “soluble on expression in E. coli” value is “not soluble”.
As for “MSHDVKELIEGLNEDLAGEYSAIIMYNHNAATVSGIYRQVLKPFFESEISDEQGHALYLAEKIKTLGGTPTTIPLRVKQAEDVREMLEYARQSEYETIKRYEKRKEQAANLNMTELVVKLEDMIADETNHMEELDRLLNDKAMVLN”, the “soluble on expression in E. coli” value is listed as “soluble”.
With “MGSDKIHHHHHHVDQKEISDIVQRILQDGPQTQEDGYCLVRAQARREWSLRLNNGRFERVSTARERGIGVQAFTPEGASGFASVDALTVEAGREAMKRAMSLAEHNAKLGAELNRAIYDASPLKTEGPNPAKLEFEHFSLAELQEQVMFLHKRLLNRSPEHSWQTSYRQVEDSWCIGRTDGTLVSYVVPRAVLMHQGTVRVQGRAKSALVQRSGVDAGLLLLEKEDSDLERRGVERGEFAKQVCVAPHLPSGHYPLIIDYGLAKGLAHEAFGHAVESDHMQESVLGEAGKLRKGLQVARPGVHIIDGPLEGDWAYQPFSANGLVRETVEIVKDGVLQAGLGDIFSAHKAGMPVSGAGRAESYGHIPLPRMTNIRLLVDHVLPLAPASDLMAEISQVRQTLRAAGELHDERKHLLLLGYRGGQVNPKTGDFVFQCDGIIDVADPNLTIYQPSIFSGKILSALQAIRVGLGGGCYDAIGTCGKGGQSVPSSGGSHRYLLLDRDEYVTLGGEQ” the entry was “not soluble”; with “MNIAALLSGGVDSSVVVHLLCEQGYKPTLFYIKIGMDGAEYMDCSAEEDIEMSTAIARKYGLSLEVVDLHKEYWENVAAYAIDKIKKGLTPNPDVMCNKLIKFGCFEQQVGKNFDFTATGHYATTIRQDGKTWLGTAKDPVKDQTDFLAQIDYLQVSKLMFPIGGLMKQEVREIASRAGLPSARRKDSQGICFLGKINYNDFVRRFLGEREGAIIELETGKKVGTHRGYWFHTIGQRKGLGLSGGPWFVIKKDVEENIIYVSHGYGVETQFGSEFRINDFHFITENPWKDAGKEIDITFKIRHTPEFTKGKLVQEEGGQFRILSSEKLQGIAPGQFGVIYDEEAGICVGSGEITRLEHHHHHH”, “soluble”; with “MSLENKIVKIEPQSIAEEMGIEVGDSLISINGKEVKDIIDYRFLMADEYVVVKIQKTNKEIWELEIEKEYDEKLGVEFESGILDSAKSCRNKCIFCFIDQLPKGMRKTLYFKDDDSRLSFLQGNFVTLTNMSDDDIDRIIKYRISPINISVQTTNPELRKKMLNNKFAGNLMERMKKLSNAGITMNCQVVLCPGINSGEEFSKTVNDLYKLYPSVKNIAGVPVGITSYREGLFNMVPYDSQSALKEIENIKPIQEKFIKEIGSPFVRLSDEFYVLSGIPIPKAEFYGEFEQFEDGIGMIRTFRDNINMSLDNLKDGIHKSFTMVTGVLAYEEIENAAKMLMEKSRGLKINVIKVINEFFGEKITVAGLLTGRDILNYLKRNEVGDYIILPSNMLKSDEDVFLDDVKVLDIEKELNKKVLVCNYSGEDLVDIINKNGREEEGHHHHHH”, “not soluble”.
In the case of “MNCAISGEVPEEPVVSKKSGLLYEKRLIQTHISDYGKCPVTGEPHTLDDIVPIKTGKIVKPKPLHTASIPGLLGTFQTEWDSLMLSNFALEQQLHTARQELSHALYQHDAACRVIARLKKERDESRQLLAEAERQLPAAPEVATSNAALSNGKRGIDDGEQGPNAKKMRLGISAEVITELTDCNAALSQQRKKRQIPKTLASVDALEKFTQLSSHPLHKTNKPGIFSMDILHSKDVIATGGIDTTAVLFDRPSGQILSTLTGHSKKVTSIKFVGDTDLVLTASSDKTVRIWGCSEDGNYTSRHTLKDHSAEVRAVTVHATNKYFVSASLDSTWCFYDLSSGLCLAQVTDASENDVNYTAAAFHPDGLILGTGTAQSIVKIWDVKSQANVAKFGGHNGEITSISFSENGYFLATAALDGVRLWDLRKLKNFRTFDFPDANSVEFDHSGSYLGIAASDIRVFQAASVKAEWNPIKTLPDLSGTGKATSVKFGLDSKYIAVGSMDRNLRIFGLPDDDNTEDSAQDS”, the “soluble on expression in E. coli” value is recorded as “soluble”.
With “TADVRTAENMGVRAYTVATAITFQGSGSYRGERWVDSADIIRQIESLSAEMEPAVAKIGLIRDSDTLSLVVDCLKKVFPSIRIVWDPVLRASADSSAGQADRFNLEDITALSRIDFITPNLPEARHLLGCEPDDETLLDFYRRSGVGLVLKGGHAGESVVTDRIVYDGRCEALRLLRGGTGKHGTGCAHSTAFAAALALEQEPFTAAGMAQLYVSRLRERASGLLAMHKDLPVDPVVR”, the “soluble on expression in E. coli” value is recorded as “not soluble”.
With “PQFHLWKRPVVTAHIEGQPVEVLLDTGADDSIVTGIELGPHYTPKIVGGIGGFINTKEYKNVEVEVLGKRIKGTIMTGDTPINIFGRNLLTALGMSLNF” the entry was “soluble”.
With “MGSDKIHHHHHHVLNLGHKLLQYEAQKLISFHTPGHKGKAEFFTDLHFPDQDLTELPGLDMLHSPAGVIAQAQARAAAVYQSDASFYLINGATVGNQGMFMALAGTGKRGKDLQLPKVLVERQSHRSVFSALVLSGCEPEYIPSVVHPEFGLPLGLKSIAEVDLGEFLGVHLTYPGYYGTLPDLAMIAAQRDRQAVQVSILVDQAHGSHYLSPLFPKGALAYGADLVLCSTHKTLSALTQAAMLHVQGSRIPLSALKEALELLQSSSPSYLLMASLERAVEHALESRRWELLHEAVQELHHRVGGSLRILNPQDVGTYGIAGLDWTKIMINTQRLGVAAPRCVEHLRKSYGIDPELWDDKNILFLLGIGNTPEEVEILTKGLLSLASLNKDVVASPEEMVFEIPLPPVRLTPRQAYFARKRKIPLAESVGHIVGESISPYPPGIPWIVMGEEMTPEILELLTRHKGRWQGWEDAGQGVWIIEEV” the entry was “not soluble”; with “MLANFSQKAQETLVGELEELVSTTNLKGVITYCNDAFCRVAEYTHEELVGQNHNIVRHSDMPKAAFGDMWARLKEGKAWRGMVKNSTKSGGYYWVDAYVTPIYEKNQVVGYQSVRVKPKREWVDIAAKAYKGMLAAEKAGRTWSLKINETVRYAILLGALTAPAVAYALSVEGPLAWLASALPASVLALLFRQELIDTPQQLKKLQKQYDSVSRLIYSGNSAFSIADFHIKMLSARIRTVLGRMTDSALPLQNCAEELSQTTSEVSAALNQQNSDIRRVRDATQEVESSANSVSSSTNDAHMLIDDTLKSCMMAKETIDQTHTNLAQLSLQA”, “not soluble”.
On to “MGSDKIHHHHHHMFQTLDHFLKSWEFEADATQKLLNSLTDESLKQEITSQNWTLGRIAWHTVAAIGIITSNTDLTFQAPAEDYPVPTSAQFIADSYHQASNAFVQALKTQWTDHTLQERINFIGQQMPNGSLLMFLIQHQNHHRGQMTVLMRQAGLTVPGIYGPAKEEWAKFGLEAPKM”, for which the “soluble on expression in E. coli” value is recorded as “not soluble”.
In the case of “MTQIPPSRLHSPLDRLLVEAQRALDTVFGNPPAERPNPAGDTPDAALAPAQRQHAAGLMRINHVGEVCAQGLYFGQAAVARDDHTRQHLLTAAQEETDHLAWCADRLRELESRPSLFNPLWYAGSYALGAVAGLRGDDWSLGFVVETERQVEAHLDEHLETLPETDQRSRAILRVMKIDEARHADHAEQAGARILPPPIPSAMALASKLMKTIAYRFLEHHHHHH”, the “soluble on expression in E. coli” value is recorded as “not soluble”.
Consider “MGSDKIHHHHHHMSSHQPAPPARPTNKVFIIGLPRTGTTSVSVALLEMGLRVAHQAFTKQAVILADAISDAPCFSDYRQLHSLYPDAKFIYLDRPLDAWVPSMQMLLSRMLVHLDKERGRFHPLLKRSFGHTFGIYRVADPMDAEHLKTCYQVHKQQVFDYFHQDQGLAQQFLSLQLDDPQSLPRLANFIGLDAQVDSPQLAFPHLNRGRNVASWDEYKHELKISSNLAGPENRKYFNYKI”, for which the “soluble on expression in E. coli” value is given as “not soluble”.
